In data set [1] the target is T1, BamHI(E111A) restriction endonuclease (UniProt P23940 1-213, E111A).
T1 sequence: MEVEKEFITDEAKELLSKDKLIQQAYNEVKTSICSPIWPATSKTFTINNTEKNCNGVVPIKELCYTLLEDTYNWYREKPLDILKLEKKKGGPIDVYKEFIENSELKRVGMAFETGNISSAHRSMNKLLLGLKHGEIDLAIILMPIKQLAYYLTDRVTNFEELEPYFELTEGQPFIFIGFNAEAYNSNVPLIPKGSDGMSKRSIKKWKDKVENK
Put plainly: EMSA; 20 nM protein; Kd EMSA: 10 mM Bis-Tris-Propane-HCl pH 7, 10 mM MgCl2, 100 ug/ml BSA, 37 C, 30 min; screen EMSA in selection buffers, 37 C: 10 mM HEPES pH 7.5 with 400 mM NaCl/. Conditions: protein: commercial; chain copies: 2; label: 32P; hairpin.

Data set [2] deals with KpnI restriction endonuclease (UniProt P25237 1-218). Put plainly: cleavage inhibition; 20 nM DNA probe N10; Kd EMSA: 10 mM Bis-Tris-Propane-HCl pH 7, 10 mM MgCl2, 100 ug/ml BSA, 37 C, 30 min; screen EMSA in selection buffers, 37 C: 10 mM HEPES pH 7.5 with 400 mM NaCl/. As to conditions: protein: commercial, chain copies: 2.
Sequence of KpnI restriction endonuclease (P25237 whole entry): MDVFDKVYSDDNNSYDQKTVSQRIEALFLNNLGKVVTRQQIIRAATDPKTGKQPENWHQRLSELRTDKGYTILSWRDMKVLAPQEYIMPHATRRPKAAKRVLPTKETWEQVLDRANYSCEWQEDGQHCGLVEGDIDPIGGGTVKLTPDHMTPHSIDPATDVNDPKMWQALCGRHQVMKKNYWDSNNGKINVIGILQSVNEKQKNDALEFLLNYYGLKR

Where a chain is given by its changes, count along the chain named.

These results are taken from article PMC4551934, “RNA aptamer inhibitors of a restriction endonuclease”.

B1: anti-KpnI aptamer 20 (structured_RNA)
RNA: GGGAUAUCCUUCAUGAUUCGGAAAAGCGUAACCGCGGCCAAUCAUGCAUGAAGCGUUCCAUAUUUUU
Regarding B1, in data set [1], the binding result is “no binding”. Moreover, the half-maximal inhibitory concentration (IC50) in data set [2] (label: 32P, hairpin) was 36.1 ± 3.9 nM.

B2: anti-KpnI aptamer 30 (structured_RNA)
RNA: B1 RNA with A40G
As to B2, in data set [1], the binding result is “no binding”. Besides, the IC50 in data set [2] (label: 32P, hairpin) came out at 23.1 ± 0.8 nM. Molecule GGGCAUGAUUCGGAAAAGCGUAACCGCGGCCAAUCAUG (structured_RNA) [aptamer 20s (38 nt)] returned a concentration for half-maximal inhibition (IC50) in data set [2] (hairpin) of 13 ± 1.5 nM.

GGGCAUGAUUCGGAUAUGCGUAACCGCGGCCAAUCAUG (structured_RNA) [20_AAA] returned an IC50 in data set [2] of 104000 nM.

B3: anti-KpnI aptamer 29 (16/23/29) (structured_RNA)
RNA: GGGAUAUCCCUACAUGAUAAUCGGGUGAGUAAGGCCUAAACAUCAUGCAUGAAGCGUUCCAUAUUUUU
In the case of B3, the binding result in data set [1] is given as “no binding”. In data set [2] (label: 32P, hairpin), this molecule had an IC50 of 153 ± 11 nM. In data set [2], GGGUCGGAAAAGCGUAACCGCGGCCA (structured_RNA) [20_26 nt] registered a half-inhibitory concentration (IC50) of 77000 nM.

B4: anti-KpnI aptamer 24 (structured_RNA)
RNA: GGGAUAUCCUUCAUGGUGUGAUUAAACGUAAUCUCAAUCGAUCAUGCAUGAAGCGUUCCAUAUUUUU
Consider B4, for which the binding result in data set [1] is on record as “no binding”.
